Assay results reported in the supplement of paper PMC9112550, “Optimization of the antimicrobial peptide Bac7 by deep mutational scanning” (BMC Biology, 2022).

Tested on: Escherichia coli TOP10
Experiment: shrunken log2 fold change of peptide-encoding DNA abundance (4.5 h post-induction vs induction); higher = less antimicrobial activity (less host growth inhibition)
Settings: time post-induction: 4.5 h; library: site-saturation at positions 5, 18, 19, 20
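Also: peptides expressed intracellularly from a pBAD plasmid library in pooled LB shake-flask culture, induced with 0.3% L-arabinose, DNA abundance read by NGS, three biological replicates, DESeq2 with apeglm shrinkage.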

Row | Sequence | shrunken log2 fold change
1 | RRIRYRPPRLPRPRPRPWGFPRP | -0.167
2 | RRIRSRPPRLPRPRPRPIMVPRP | -0.644
3 | RRIRTRPPRLPRPRPRPQIWPRP | 0.0741
4 | RRIRTRPPRLPRPRPRPCYMPRP | -0.156
5 | RRIRFRPPRLPRPRPRPWTRPRP | -0.0481
6 | RRIRNRPPRLPRPRPRPVEWPRP | 0.00664
7 | RRIRSRPPRLPRPRPRPVHLPRP | -0.177
8 | RRIRDRPPRLPRPRPRPANGPRP | -0.0137
9 | RRIRRRPPRLPRPRPRPAGHPRP | 0.187
10 | RRIRYRPPRLPRPRPRPCMGPRP | -0.198
11 | RRIRNRPPRLPRPRPRPIKPPRP | -0.00904
12 | RRIRYRPPRLPRPRPRPNLVPRP | -0.0754
13 | RRIRHRPPRLPRPRPRPWIRPRP | -0.0813
14 | RRIRMRPPRLPRPRPRPTPIPRP | 0.255
15 | RRIRQRPPRLPRPRPRPWYYPRP | 0.0179
16 | RRIRLRPPRLPRPRPRPLAIPRP | 0.221
17 | RRIRNRPPRLPRPRPRPSKLPRP | -0.582
18 | RRIRYRPPRLPRPRPRPTQHPRP | -0.309
19 | RRIRARPPRLPRPRPRPNGHPRP | 0.53
20 | RRIRQRPPRLPRPRPRPKQNPRP | -0.0189
21 | RRIRARPPRLPRPRPRPESVPRP | 0.886
22 | RRIRSRPPRLPRPRPRPAYVPRP | -0.137
23 | RRIRMRPPRLPRPRPRPYFGPRP | -0.138
24 | RRIRQRPPRLPRPRPRPCINPRP | -0.0449
25 | RRIRPRPPRLPRPRPRPVAQPRP | 0.123

Row | Sequence | shrunken log2 fold change
26 | RRIRSRPPRLPRPRPRPYHEPRP | -1.19
27 | RRIRSRPPRLPRPRPRPNQDPRP | -0.3
28 | RRIRNRPPRLPRPRPRPEAIPRP | 0.113
29 | RRIRQRPPRLPRPRPRPECGPRP | 0.238
30 | RRIRFRPPRLPRPRPRPWYWPRP | -0.34
31 | RRIRFRPPRLPRPRPRPKTKPRP | 0.0287
32 | RRIRQRPPRLPRPRPRPINKPRP | -0.318
33 | RRIRPRPPRLPRPRPRPSSDPRP | -0.317
34 | RRIRMRPPRLPRPRPRPLCQPRP | 0.0549
35 | RRIRLRPPRLPRPRPRPMNNPRP | -0.604
36 | RRIRTRPPRLPRPRPRPAPTPRP | 0.0808
37 | RRIRDRPPRLPRPRPRPRQQPRP | 0.388
38 | RRIRPRPPRLPRPRPRPHIPPRP | -0.492
39 | RRIRHRPPRLPRPRPRPYMDPRP | -0.356
40 | RRIRCRPPRLPRPRPRPSLYPRP | -0.518
41 | RRIRYRPPRLPRPRPRPAAHPRP | -0.134
42 | RRIRIRPPRLPRPRPRPLMIPRP | -0.807
43 | RRIRTRPPRLPRPRPRPCNPPRP | -0.0887
44 | RRIRMRPPRLPRPRPRPESWPRP | 1.52
45 | RRIRRRPPRLPRPRPRPPRIPRP | 1.08
46 | RRIRARPPRLPRPRPRPHYPPRP | -1.36
47 | RRIRHRPPRLPRPRPRPMVYPRP | -0.0125
48 | RRIRFRPPRLPRPRPRPEQVPRP | 0.0138
49 | RRIRCRPPRLPRPRPRPQNNPRP | -0.526
50 | RRIRPRPPRLPRPRPRPKRDPRP | 0.0476

Row | Sequence | shrunken log2 fold change
51 | RRIRWRPPRLPRPRPRPDYSPRP | -0.106
52 | RRIRQRPPRLPRPRPRPQERPRP | -0.00247
53 | RRIRFRPPRLPRPRPRPHTRPRP | -0.223
54 | RRIRMRPPRLPRPRPRPQKNPRP | 0.628
55 | RRIRLRPPRLPRPRPRPYDWPRP | -0.218
56 | RRIRIRPPRLPRPRPRPGKGPRP | -0.185
57 | RRIRWRPPRLPRPRPRPYVLPRP | -0.843
58 | RRIRKRPPRLPRPRPRPDTRPRP | 0.0202
59 | RRIRLRPPRLPRPRPRPYTSPRP | -0.33
60 | RRIRVRPPRLPRPRPRPVNYPRP | 0.0937
61 | RRIRKRPPRLPRPRPRPMFCPRP | 0.0792
62 | RRIRHRPPRLPRPRPRPVMQPRP | -0.01
63 | RRIRLRPPRLPRPRPRPVCLPRP | -0.0821
64 | RRIRWRPPRLPRPRPRPNPKPRP | 0.0369
65 | RRIRLRPPRLPRPRPRPSSIPRP | -0.245
66 | RRIRTRPPRLPRPRPRPYEHPRP | -0.0707
67 | RRIRIRPPRLPRPRPRPPNLPRP | -0.188
68 | RRIRYRPPRLPRPRPRPQVFPRP | 0.0195
69 | RRIRERPPRLPRPRPRPADQPRP | 0.0155
70 | RRIRYRPPRLPRPRPRPRPPPRP | 1.01
71 | RRIRYRPPRLPRPRPRPAEGPRP | -0.169
72 | RRIRCRPPRLPRPRPRPSTTPRP | -0.257
73 | RRIRFRPPRLPRPRPRPASVPRP | 0.344
74 | RRIRSRPPRLPRPRPRPWVIPRP | -0.201
75 | RRIRFRPPRLPRPRPRPLHNPRP | -0.398

Row | Sequence | shrunken log2 fold change
76 | RRIRTRPPRLPRPRPRPIPIPRP | -0.0307
77 | RRIRVRPPRLPRPRPRPWVKPRP | -0.235
78 | RRIRVRPPRLPRPRPRPFLKPRP | -0.602
79 | RRIRCRPPRLPRPRPRPVIYPRP | -0.493
80 | RRIRMRPPRLPRPRPRPNHKPRP | -0.391
81 | RRIRCRPPRLPRPRPRPVEIPRP | -0.296
82 | RRIRHRPPRLPRPRPRPRRHPRP | 0.153
83 | RRIRGRPPRLPRPRPRPDFIPRP | 0.157
84 | RRIRLRPPRLPRPRPRPRIRPRP | 0.103
85 | RRIRSRPPRLPRPRPRPCNIPRP | -0.178
86 | RRIRKRPPRLPRPRPRPIHEPRP | -0.0401
87 | RRIRVRPPRLPRPRPRPDVEPRP | 0.372
88 | RRIRRRPPRLPRPRPRPSESPRP | 0.0539
89 | RRIRWRPPRLPRPRPRPIMCPRP | -0.0807
90 | RRIRTRPPRLPRPRPRPMVKPRP | -0.0282
91 | RRIRMRPPRLPRPRPRPGINPRP | -0.319
92 | RRIRLRPPRLPRPRPRPRYVPRP | -0.265
93 | RRIRMRPPRLPRPRPRPNRWPRP | 0.394
94 | RRIRNRPPRLPRPRPRPQLSPRP | -0.2
95 | RRIRQRPPRLPRPRPRPRYHPRP | -0.784
96 | RRIRARPPRLPRPRPRPRYFPRP | -0.0939
97 | RRIRARPPRLPRPRPRPRHQPRP | 0.178
98 | RRIRLRPPRLPRPRPRPLKYPRP | -0.0803
99 | RRIRQRPPRLPRPRPRPDYWPRP | 0.156
100 | RRIRERPPRLPRPRPRPGIRPRP | -0.0819

Row | Sequence | shrunken log2 fold change
101 | RRIRWRPPRLPRPRPRPTVNPRP | 0.0302
102 | RRIRARPPRLPRPRPRPDKPPRP | 0.865
103 | RRIRTRPPRLPRPRPRPAFVPRP | -0.163
104 | RRIRLRPPRLPRPRPRPELGPRP | 0.0397
105 | RRIRNRPPRLPRPRPRPNAHPRP | -0.456
106 | RRIRWRPPRLPRPRPRPSTKPRP | -0.0244
107 | RRIRARPPRLPRPRPRPFTMPRP | -0.378
108 | RRIRIRPPRLPRPRPRPFTWPRP | -0.924
109 | RRIRIRPPRLPRPRPRPVNFPRP | -0.0259
110 | RRIRVRPPRLPRPRPRPTHCPRP | 0.233
111 | RRIRDRPPRLPRPRPRPILPPRP | 0.0106
112 | RRIRRRPPRLPRPRPRPCRKPRP | -0.444
113 | RRIRCRPPRLPRPRPRPRAGPRP | 0.472
114 | RRIRWRPPRLPRPRPRPGGQPRP | -0.0831
115 | RRIRYRPPRLPRPRPRPEHDPRP | 0.0965
116 | RRIRQRPPRLPRPRPRPKPNPRP | 0.301
117 | RRIRVRPPRLPRPRPRPVSEPRP | 0.155
118 | RRIRHRPPRLPRPRPRPVSLPRP | -0.0931
119 | RRIRNRPPRLPRPRPRPGYKPRP | 0.0376
120 | RRIRYRPPRLPRPRPRPKQNPRP | -0.473
121 | RRIRIRPPRLPRPRPRPDHSPRP | -0.152
122 | RRIRGRPPRLPRPRPRPTGEPRP | 0.0778
123 | RRIRQRPPRLPRPRPRPTAVPRP | 0.165
124 | RRIRERPPRLPRPRPRPSYHPRP | -0.66
125 | RRIRWRPPRLPRPRPRPMTPPRP | 0.764

Row | Sequence | shrunken log2 fold change
126 | RRIRPRPPRLPRPRPRPVCDPRP | 0.333
127 | RRIRCRPPRLPRPRPRPMQKPRP | 0.0364
128 | RRIRWRPPRLPRPRPRPACRPRP | 0.258
129 | RRIRERPPRLPRPRPRPRKLPRP | -0.0356
130 | RRIRKRPPRLPRPRPRPLWSPRP | -0.014
131 | RRIRSRPPRLPRPRPRPQSFPRP | -0.0939
132 | RRIRARPPRLPRPRPRPITQPRP | -0.0161
133 | RRIRGRPPRLPRPRPRPIHDPRP | -0.126
134 | RRIRLRPPRLPRPRPRPQVHPRP | -0.184
135 | RRIRERPPRLPRPRPRPAWGPRP | -0.00226
136 | RRIRPRPPRLPRPRPRPFPYPRP | -0.0798
137 | RRIRQRPPRLPRPRPRPCKIPRP | -0.0788
138 | RRIRRRPPRLPRPRPRPNPYPRP | -0.0616
139 | RRIRVRPPRLPRPRPRPCAMPRP | -0.16
140 | RRIRTRPPRLPRPRPRPTWVPRP | 0.149
141 | RRIRYRPPRLPRPRPRPNFSPRP | -0.401
142 | RRIRNRPPRLPRPRPRPVFQPRP | -0.623
143 | RRIRARPPRLPRPRPRPGLHPRP | 0.275
144 | RRIRFRPPRLPRPRPRPLPRPRP | 0.669
145 | RRIRIRPPRLPRPRPRPTQPPRP | -0.0427
146 | RRIRARPPRLPRPRPRPMGMPRP | 0.211
147 | RRIRMRPPRLPRPRPRPSHIPRP | -0.659
148 | RRIRERPPRLPRPRPRPCQNPRP | -0.0177
149 | RRIRARPPRLPRPRPRPSWYPRP | -0.25
150 | RRIRERPPRLPRPRPRPERQPRP | -0.0184
